This note sets out measurements from patent US20250320284A1 (AC IMMUNE, published 2025).

The target in test [1] is T1, human ASC (apoptosis associated speck-like protein containing a caspase-recruitment domain) (human, UniProt Q9ULZ3 1-195).
T1 construct: recombinant hASC in ELISA and SPR; endogenous ASC (cytoplasmic or specks) in Western blot and immunofluorescence; also called hASC; PYCARD
As to the kind of experiment: ELISA, coated hASC. (ELISA stands for enzyme-linked immunosorbent assay.)

The target in the next test is T2, PYD domain of human ASC (human, UniProt Q9ULZ3 1-91, limits assumed).
T2 construct: biotinylated in BLI; His/MBP-tagged in the alanine ELISA; also called hPYD; human PYD
Description: ELISA, coated hPYD.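 Further: monoclonal antibody binding to plate-coated human ASC PYD measured by ELISA, with a phosphatase substrate absorbance read-out and EC50 from a variable slope curve fit.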

In test [2] the target is T3, CARD domain of human ASC (human, UniProt Q9ULZ3 107-195).
T3 construct: biotinylated in BLI; also called hCARD; human CARD
T3 sequence: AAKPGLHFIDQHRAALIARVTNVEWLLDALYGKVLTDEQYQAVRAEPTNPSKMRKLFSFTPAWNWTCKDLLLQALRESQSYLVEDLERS
As to the kind of experiment: ELISA, coated hCARD.

The target in test [3] is T1, human ASC (apoptosis associated …). As to the kind of experiment: cell-based or functional assay.
Test [4] shares this target. As to the kind of experiment: cell-based or functional assay. The source holds these as a separate data set.
The target of test [5] is T4, mouse ASC (mouse, UniProt Q9EPB4 1-193).
T4 sequence: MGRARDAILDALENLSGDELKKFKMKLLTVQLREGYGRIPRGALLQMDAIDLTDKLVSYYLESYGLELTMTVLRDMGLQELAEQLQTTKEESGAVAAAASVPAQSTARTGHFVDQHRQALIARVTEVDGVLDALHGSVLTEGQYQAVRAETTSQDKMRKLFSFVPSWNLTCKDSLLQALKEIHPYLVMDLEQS
As to the kind of experiment: cell-based or functional assay.

Test [6] deals with T1, human ASC (apoptosis associated …). Description: SPR affinity mode, mAb captured.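 Further: Single-cycle SPR kinetics with mAbs captured on goat anti-mouse antibody, double-referenced against blank flow cell and buffer cycle, fitted by a 1:1 kinetic model.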
For test [7], the target named is T4, mouse ASC. Description: ELISA, coated mASC; ELISA on mASC protein.
For test [8], the target named is T3, CARD domain of human ASC. Description: BLI binning on CARD, competitor 32B6C7-Ab1.
In test [9] the target is T3, CARD domain of human ASC. As to the kind of experiment: BLI binning on CARD, competitor 18F4C12-Ab1.
Test [10] has as its target T3, CARD domain of human ASC. As to the kind of experiment: BLI binning on CARD, competitor 2504F3D9-Ab1.
Test [11] deals with T3, CARD domain of human ASC. As to the kind of experiment: BLI binning on CARD, competitor 2609F4A9-Ab1.
Test [12] concerns the target T3, CARD domain of human ASC. Description: BLI binning on CARD, competitor 2629E8D1-Ab1.
The target of test [13] is T3, CARD domain of human ASC. Description: BLI binning on CARD, competitor 2622E12F11-Ab1.
The target in test [14] is T4, mouse ASC. Description: SPR affinity mode, steady-state fit, apparent KD; SPR affinity mode, mAb captured, mASC in solution; steady-state fit, apparent KD.
The target in test [15] is T4, mouse ASC. Description: cell-based or functional assay. This is another data set of the same source.

T2 sequence (Q9ULZ3 1-91 limits assumed): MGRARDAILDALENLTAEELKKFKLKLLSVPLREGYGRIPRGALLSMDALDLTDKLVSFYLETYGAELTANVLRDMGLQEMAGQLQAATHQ

B1: ACI-8016-2622E12F11-AB1 (antibody, V domains shown)
VH: RVQLQQAGAELVKPGASVKVSCKASGNTFNNYWIYWVKQRPGQGLEWIGRIHPSDSGTNYNQKFEGKATLTVDKSSGTAYMQLSSLTAEDSAVYYCALLSLYAMDSWGHGTSVTVSS
VL: DIVLTQSPASLAVSLGQRATISCRASKSVSSFGYNYIHWYLQKPGQPPKLLIYLASDLESGVPARFSGSGSGTGFTLNIHPVEEEDAATYYCQHSREFPWTFGGGTKLEIK
As to B1, the figures for the EC50 (in test [1]; in the test with CARD domain of human ASC [2]; in the test with mouse ASC [7]) were 0.11 nM, 0.12 nM and 0.16 nM, respectively. The binding result with PYD domain of human ASC is listed as “no binding”. Further, the “Human ASC polymerization assay, IC50” value in [3] was determined as 19.4 nM. In test [4], the “IL-1β release, human monocytic cell line, IC50” value (shortened to “IL-1β release”) was found to be 30.8 nM. Besides, in the test with mouse ASC [5], the “% IL-1β inhibition, mouse primary microglia, 420 nM mAb” value (“% IL-1β inhibition” for short) amounted to 95.9%. For the same molecule, the figures for the Kd (in [6]; with mouse ASC [14]) were 3.66 nM and 176 nM, respectively. Further, the dissociation rate constant (koff) (in general, a measure of how fast the partners let go of each other) in test [6] worked out at 0.000786 s⁻¹. In addition, the kon (commonly the second-order rate constant of association) in [6] is 235000 M⁻¹ s⁻¹. For the same molecule, the normalized binding response was 91% in the test with CARD domain of human ASC [8]; 18% in the test with CARD domain of human ASC [9]; -2% in the test with CARD domain of human ASC [10]; 74% in the test with CARD domain of human ASC [11]; 87% with CARD domain of human ASC [12]; 0% with CARD domain of human ASC [13].

B2: ACI-8016-2504F3D9-AB1 (antibody, V domains shown)
VH: DVKLVESGEGLVKPGGSLKLSCAVSGFTFSNYAMSWVRQTPEKRLEWVAYISSGGDFIYYRDTVKGRFTISRDNARNTLYLQMSSLKSEDTAMYYCILQLRPEAWFAYWGQGTLVTVSA
VL: DIKMTQSPSSMYASLGERVTITCKASQDIKNYLSWFQQIPGKSPKTLIYRANRLVDGVPSRFSGSGSGQDYSLTISSLEYEDMGIYYCLQYYEFPYTFGGGTKLEIK
With B2, the EC50 (in general, the concentration needed to bring the measured effect to its halfway point) in test [1] was 0.19 nM; with CARD domain of human ASC [2], 0.13 nM. The binding result with PYD domain of human ASC was “no binding”. Also, the “IL-1β release” value in [4] worked out at 16.7 nM. For the same molecule, the Kd in test [6] came out at 8.3 nM. Also, the koff in test [6] was found to be 0.000723 s⁻¹. This molecule showed a kon in test [6] of 89300 M⁻¹ s⁻¹. Further, the normalized binding response stood at 21% with CARD domain of human ASC [8]; 76% with CARD domain of human ASC [9]; 0% in the test with CARD domain of human ASC [10]; 17% with CARD domain of human ASC [11]; 20% in the test with CARD domain of human ASC [12]; 19% with CARD domain of human ASC [13].

B3: ACI-8016-2609F4A9-AB1 (antibody, V domains shown)
VH: QVQLQQSDAELVKPGASVKISCKVSGYALTDHSIHWMKQRPEQGLAWIGYMYPGDGSANYNDKFRGKATLTADISSSTAYMHLNSLTSEDSAVYFCTRPYSFGSSYDYFGYWGQGTTLTVSS
VL: DIQMNQSPSSLSASLGDTITITCHASQNINVWLNWYQQKPGNIPKLLIYKASKLHTGVSSSFSGSGSGTGFTLTISSLQPEDIGTYYCQQGQSYPYTFGGGTKLEIK
On to B3, for which the EC50 in test [1] came to 0.12 nM; with CARD domain of human ASC [2] it was 0.11 nM; with mouse ASC [7] it was 0.3 nM. Besides, the binding result with PYD domain of human ASC was “no binding”. The “Human ASC polymerization assay, IC50” value in [3] is 32.8 nM. Also, the “IL-1β release” value in test [4] amounted to 16.2 nM. In addition, the “% IL-1β inhibition” value in the test with mouse ASC [5] stood at 82.3%. Further, the values for the Kd (in test [6]; with mouse ASC [14]) were 24.9 nM and 168 nM, respectively. In test [6], the koff turned out to be 0.00783 s⁻¹. The molecule further had a kon in [6] of 297000 M⁻¹ s⁻¹. Besides, the normalized binding response is 7% with CARD domain of human ASC [8]; 96% with CARD domain of human ASC [9]; 0% with CARD domain of human ASC [10]; 0% in the test with CARD domain of human ASC [11]; 0% in the test with CARD domain of human ASC [12]; 103% in the test with CARD domain of human ASC [13].

B4: ACI-8016-2626B9D3-AB1 (antibody, V domains shown)
VH: QVQLQQPGTELVKPGASVKLSCRASGWTHWVKQRPGQGLEWIGNINLSNGRTNYNEKFRAMATLTVDKSSSTAYTQLSSLTSEDSAVYYCANSMVPHFFPMDYWGQGTSVTVSS
VL: NIVMTQYPKSMSLSIGERVTLRCKASENVGSYVSWYQQKPEQSPKLLIYGASNRYTGVPDRFTGSGSATDFILTITSVQAEDLADYHCGQSYNYPLTFGAGTKLELK
Consider B4, for which the “Mouse ASC polymerization assay, IC50” value with mouse ASC [15] was 27.3 nM. Further, in the test with mouse ASC [5], the “% IL-1β inhibition” value is 52%. In the test with mouse ASC [7], this molecule yielded an EC50 of 0.38 nM. For the same molecule, the Kd with mouse ASC [14] was determined as 34.4 nM.
